Patent US20140072613A1, “Compositions and Methods for Treating Cutaneous Scarring” (priority 2012, published 2014)

Columns and labels:
Experiment in all cases: cell-based or functional assay
ACK1(h) (human) = ACK1(h) (human) (UniProt Q07912)
CDK5/p25(h) (human) = CDK5/p25(h) (human) (UniProt Q00535)
DAPK2(h) (human) = DAPK2(h) (human) (UniProt Q9UIK4)
DRAK1(h) (human) = DRAK1(h) (human) (UniProt Q9UEE5)
DYRK2(h) (human) = DYRK2(h) (human) (UniProt Q92630)
EphA1(h) (human) = molecular target: T1, EphA1(h) (human) (UniProt P21709)
T1 sequence (looked up): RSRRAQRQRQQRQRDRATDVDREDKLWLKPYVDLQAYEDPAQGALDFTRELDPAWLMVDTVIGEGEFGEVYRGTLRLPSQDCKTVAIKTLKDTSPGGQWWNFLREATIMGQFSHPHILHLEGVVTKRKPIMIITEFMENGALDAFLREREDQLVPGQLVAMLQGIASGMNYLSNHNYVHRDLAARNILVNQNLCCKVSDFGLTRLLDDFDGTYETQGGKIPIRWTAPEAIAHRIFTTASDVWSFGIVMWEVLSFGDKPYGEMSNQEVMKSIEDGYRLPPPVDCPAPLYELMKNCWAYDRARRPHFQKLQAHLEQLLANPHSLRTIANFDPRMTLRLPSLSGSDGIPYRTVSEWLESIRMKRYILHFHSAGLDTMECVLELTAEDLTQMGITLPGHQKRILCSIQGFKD

EphB1(h) (human) = EphB1(h) (human) (UniProt P54762)
FAK(h) (human) = FAK(h) (human) (UniProt Q05397)
Sequence of FAK(h) (human) (Q05397 whole entry): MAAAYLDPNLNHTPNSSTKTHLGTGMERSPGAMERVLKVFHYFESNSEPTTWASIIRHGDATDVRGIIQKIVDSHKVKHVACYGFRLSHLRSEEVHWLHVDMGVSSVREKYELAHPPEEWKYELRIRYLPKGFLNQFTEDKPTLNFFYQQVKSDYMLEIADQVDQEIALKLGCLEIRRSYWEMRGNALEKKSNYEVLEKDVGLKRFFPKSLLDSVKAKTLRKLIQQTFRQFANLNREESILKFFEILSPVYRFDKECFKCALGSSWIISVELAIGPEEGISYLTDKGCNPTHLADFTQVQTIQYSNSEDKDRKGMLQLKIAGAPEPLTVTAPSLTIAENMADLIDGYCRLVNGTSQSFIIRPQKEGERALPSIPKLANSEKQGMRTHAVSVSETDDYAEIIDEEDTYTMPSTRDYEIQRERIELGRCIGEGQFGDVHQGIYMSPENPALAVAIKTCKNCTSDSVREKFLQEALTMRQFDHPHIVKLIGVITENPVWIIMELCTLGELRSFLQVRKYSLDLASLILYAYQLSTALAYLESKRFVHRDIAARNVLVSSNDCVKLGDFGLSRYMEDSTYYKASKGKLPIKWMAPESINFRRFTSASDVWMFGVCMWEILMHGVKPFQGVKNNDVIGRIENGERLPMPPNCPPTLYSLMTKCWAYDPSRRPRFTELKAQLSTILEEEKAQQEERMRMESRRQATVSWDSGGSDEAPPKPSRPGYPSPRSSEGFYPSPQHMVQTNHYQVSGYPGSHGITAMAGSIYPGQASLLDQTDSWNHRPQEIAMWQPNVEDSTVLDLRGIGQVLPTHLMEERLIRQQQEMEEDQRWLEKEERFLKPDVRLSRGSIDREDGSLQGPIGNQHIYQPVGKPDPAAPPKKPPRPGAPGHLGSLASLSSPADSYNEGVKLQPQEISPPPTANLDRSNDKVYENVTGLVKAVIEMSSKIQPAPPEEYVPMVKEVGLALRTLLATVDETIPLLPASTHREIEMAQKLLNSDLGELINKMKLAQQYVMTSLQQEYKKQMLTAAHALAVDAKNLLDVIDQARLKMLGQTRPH

FGFR4(h) (human) = FGFR4(h) (human) (UniProt P22455)
Sequence of FGFR4(h) (human) (P22455 460-802 limits assumed): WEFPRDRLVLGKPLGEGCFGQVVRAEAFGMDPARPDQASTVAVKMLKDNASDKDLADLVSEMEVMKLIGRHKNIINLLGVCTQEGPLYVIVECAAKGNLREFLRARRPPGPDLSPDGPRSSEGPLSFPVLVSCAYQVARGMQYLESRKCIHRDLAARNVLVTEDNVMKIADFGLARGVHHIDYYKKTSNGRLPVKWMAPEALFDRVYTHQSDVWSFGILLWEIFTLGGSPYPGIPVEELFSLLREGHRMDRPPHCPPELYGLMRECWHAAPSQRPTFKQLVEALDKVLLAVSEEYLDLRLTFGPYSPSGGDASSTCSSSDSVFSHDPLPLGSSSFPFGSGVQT

IKKβ(h) (human) = molecular target: T2, IKKβ(h) (human) (UniProt O14920)
T2 sequence (looked up): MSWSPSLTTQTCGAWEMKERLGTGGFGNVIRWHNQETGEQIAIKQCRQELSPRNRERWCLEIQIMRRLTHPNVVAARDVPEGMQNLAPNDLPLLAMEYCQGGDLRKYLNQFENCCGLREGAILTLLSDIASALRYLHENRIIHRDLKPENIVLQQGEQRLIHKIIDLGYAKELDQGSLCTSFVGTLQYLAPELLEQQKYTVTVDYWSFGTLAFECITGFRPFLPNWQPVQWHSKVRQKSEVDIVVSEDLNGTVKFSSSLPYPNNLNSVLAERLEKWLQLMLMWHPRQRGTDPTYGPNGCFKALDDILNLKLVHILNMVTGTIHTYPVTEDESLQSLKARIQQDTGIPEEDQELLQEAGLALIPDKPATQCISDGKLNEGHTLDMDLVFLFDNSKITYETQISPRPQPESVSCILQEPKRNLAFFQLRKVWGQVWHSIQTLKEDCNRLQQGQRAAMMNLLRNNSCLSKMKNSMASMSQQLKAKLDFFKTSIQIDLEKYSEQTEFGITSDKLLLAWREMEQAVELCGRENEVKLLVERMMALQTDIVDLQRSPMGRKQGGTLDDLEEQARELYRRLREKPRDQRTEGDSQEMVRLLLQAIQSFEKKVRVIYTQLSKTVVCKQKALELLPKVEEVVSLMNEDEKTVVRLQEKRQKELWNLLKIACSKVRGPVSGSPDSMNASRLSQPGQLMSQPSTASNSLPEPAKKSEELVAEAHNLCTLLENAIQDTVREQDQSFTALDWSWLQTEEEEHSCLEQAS

IR(h), activated (human) = IR(h), activated (human) (UniProt P06213)
KDR(h) (human) = KDR(h) (human) (UniProt P35968)
MINK(h) (human) = MINK(h) (human) (UniProt Q8N4C8)
Sequence of MINK(h) (human) (Q8N4C8 1-320 limits assumed): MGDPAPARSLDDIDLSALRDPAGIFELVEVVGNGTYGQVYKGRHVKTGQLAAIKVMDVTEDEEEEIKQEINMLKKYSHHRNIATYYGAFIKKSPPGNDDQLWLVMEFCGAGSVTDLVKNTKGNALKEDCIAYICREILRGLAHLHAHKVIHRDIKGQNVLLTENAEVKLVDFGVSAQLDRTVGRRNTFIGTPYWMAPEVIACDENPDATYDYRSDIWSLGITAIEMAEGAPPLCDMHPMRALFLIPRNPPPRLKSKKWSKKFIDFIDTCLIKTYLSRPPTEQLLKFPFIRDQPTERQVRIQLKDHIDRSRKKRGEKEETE

PAK4(h) (human) = PAK4(h) (human) (UniProt O96013)
Sequence of PAK4(h) (human) (O96013 whole entry): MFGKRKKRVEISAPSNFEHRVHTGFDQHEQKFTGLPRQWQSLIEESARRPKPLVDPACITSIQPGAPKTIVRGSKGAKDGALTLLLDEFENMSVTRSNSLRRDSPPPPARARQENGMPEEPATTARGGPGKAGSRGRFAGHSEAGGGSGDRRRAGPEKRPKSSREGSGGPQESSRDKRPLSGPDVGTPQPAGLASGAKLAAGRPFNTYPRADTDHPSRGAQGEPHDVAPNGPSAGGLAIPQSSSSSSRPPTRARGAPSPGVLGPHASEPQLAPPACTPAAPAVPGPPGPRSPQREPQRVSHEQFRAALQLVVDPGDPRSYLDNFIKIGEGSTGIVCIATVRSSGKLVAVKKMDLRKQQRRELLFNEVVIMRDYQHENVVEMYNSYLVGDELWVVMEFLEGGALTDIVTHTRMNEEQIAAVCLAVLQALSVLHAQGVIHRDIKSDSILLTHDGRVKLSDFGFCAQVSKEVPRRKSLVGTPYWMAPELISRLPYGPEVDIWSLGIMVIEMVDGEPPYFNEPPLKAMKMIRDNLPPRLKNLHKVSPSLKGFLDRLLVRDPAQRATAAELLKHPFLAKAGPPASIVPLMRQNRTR

PKCβII(h) (human) = PKCβII(h) (human) (UniProt P05771)
Ron(h) (human) = Ron(h) (human) (UniProt Q04912)
Rsk3(h) (human) = Rsk3(h) (human) (UniProt Q15349)
Sequence of Rsk3(h) (human) (Q15349 whole entry): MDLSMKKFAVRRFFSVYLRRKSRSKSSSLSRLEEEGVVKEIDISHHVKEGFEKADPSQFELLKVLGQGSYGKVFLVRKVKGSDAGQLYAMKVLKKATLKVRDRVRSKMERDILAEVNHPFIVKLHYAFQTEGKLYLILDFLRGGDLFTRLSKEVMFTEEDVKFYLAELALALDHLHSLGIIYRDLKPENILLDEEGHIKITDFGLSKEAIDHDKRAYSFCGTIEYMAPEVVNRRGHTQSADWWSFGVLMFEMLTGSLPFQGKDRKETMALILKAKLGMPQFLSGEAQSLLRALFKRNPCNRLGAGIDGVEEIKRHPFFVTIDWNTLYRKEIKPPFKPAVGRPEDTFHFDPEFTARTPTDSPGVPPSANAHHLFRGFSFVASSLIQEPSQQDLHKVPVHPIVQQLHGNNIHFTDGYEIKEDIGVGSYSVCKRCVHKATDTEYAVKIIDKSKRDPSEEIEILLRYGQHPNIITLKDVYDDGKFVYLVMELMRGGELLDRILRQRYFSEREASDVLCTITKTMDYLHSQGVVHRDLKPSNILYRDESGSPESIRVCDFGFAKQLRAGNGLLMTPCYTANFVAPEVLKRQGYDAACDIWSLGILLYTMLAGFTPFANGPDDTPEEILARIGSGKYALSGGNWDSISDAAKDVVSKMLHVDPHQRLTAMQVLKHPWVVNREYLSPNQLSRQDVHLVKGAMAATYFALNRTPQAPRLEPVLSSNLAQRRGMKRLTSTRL

Src(T341M)(h) (human) = Src(T341M)(h) (human) (UniProt P12931)
Tie2(Y897S)(h) (human) = Tie2(Y897S)(h) (human) (UniProt Q02763)
Sequence of Tie2(Y897S)(h) (human) (Q02763 771-1124 Y897S limits assumed): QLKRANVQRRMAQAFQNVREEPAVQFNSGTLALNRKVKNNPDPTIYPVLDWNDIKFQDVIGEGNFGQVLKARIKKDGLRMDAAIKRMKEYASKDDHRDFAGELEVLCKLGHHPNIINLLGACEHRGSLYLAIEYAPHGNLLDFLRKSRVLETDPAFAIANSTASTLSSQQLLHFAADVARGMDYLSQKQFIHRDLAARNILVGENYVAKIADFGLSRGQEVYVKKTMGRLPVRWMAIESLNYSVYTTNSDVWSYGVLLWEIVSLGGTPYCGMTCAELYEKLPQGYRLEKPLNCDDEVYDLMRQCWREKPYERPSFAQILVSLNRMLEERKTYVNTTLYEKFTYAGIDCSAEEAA

cKit(D816H)(h) (human) = cKit(D816H)(h) (human) (UniProt P10721)
Sequence of cKit(D816H)(h) (human) (P10721 544-976 D816H): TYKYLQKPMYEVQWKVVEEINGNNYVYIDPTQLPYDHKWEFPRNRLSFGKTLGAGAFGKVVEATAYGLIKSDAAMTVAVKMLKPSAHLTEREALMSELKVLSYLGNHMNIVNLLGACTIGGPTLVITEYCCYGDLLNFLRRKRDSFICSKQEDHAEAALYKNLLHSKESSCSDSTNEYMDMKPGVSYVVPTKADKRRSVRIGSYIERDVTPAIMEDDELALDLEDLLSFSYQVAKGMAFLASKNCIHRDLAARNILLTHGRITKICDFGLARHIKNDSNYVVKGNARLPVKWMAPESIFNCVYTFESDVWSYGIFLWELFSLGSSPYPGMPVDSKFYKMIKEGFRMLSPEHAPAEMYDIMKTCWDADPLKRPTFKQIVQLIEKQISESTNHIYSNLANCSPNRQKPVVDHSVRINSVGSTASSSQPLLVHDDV

cKit(D816V)(h) (human) = cKit(D816V)(h) (human) (UniProt P10721)
Sequence of cKit(D816V)(h) (human) (P10721 544-976 D816V): as the sequence (P10721 544-976 D816H) above, with H273V counted along it

eEF-2K(h) (human) = molecular target: T3, eEF-2K(h) (human) (UniProt O00418)
T3 sequence (looked up): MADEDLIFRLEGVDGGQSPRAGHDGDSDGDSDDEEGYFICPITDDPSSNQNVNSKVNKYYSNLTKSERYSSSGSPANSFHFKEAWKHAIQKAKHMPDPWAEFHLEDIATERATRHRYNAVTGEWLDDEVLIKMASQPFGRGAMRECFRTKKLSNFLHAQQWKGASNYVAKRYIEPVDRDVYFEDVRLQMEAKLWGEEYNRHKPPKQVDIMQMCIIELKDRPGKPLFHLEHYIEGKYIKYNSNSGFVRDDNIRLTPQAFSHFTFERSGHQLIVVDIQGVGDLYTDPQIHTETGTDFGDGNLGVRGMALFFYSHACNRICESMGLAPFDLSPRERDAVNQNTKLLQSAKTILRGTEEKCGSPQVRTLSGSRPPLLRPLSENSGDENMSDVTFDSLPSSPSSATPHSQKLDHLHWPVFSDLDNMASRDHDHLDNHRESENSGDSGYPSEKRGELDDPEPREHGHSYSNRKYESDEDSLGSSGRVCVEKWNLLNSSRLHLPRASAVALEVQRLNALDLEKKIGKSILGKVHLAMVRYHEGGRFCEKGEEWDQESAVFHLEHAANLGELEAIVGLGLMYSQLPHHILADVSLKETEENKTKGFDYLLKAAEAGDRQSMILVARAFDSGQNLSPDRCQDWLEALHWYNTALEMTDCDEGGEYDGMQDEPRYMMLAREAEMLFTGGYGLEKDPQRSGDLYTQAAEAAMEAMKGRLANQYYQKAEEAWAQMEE

Sequence of DYRK2(h) (human) (Q92630 whole entry): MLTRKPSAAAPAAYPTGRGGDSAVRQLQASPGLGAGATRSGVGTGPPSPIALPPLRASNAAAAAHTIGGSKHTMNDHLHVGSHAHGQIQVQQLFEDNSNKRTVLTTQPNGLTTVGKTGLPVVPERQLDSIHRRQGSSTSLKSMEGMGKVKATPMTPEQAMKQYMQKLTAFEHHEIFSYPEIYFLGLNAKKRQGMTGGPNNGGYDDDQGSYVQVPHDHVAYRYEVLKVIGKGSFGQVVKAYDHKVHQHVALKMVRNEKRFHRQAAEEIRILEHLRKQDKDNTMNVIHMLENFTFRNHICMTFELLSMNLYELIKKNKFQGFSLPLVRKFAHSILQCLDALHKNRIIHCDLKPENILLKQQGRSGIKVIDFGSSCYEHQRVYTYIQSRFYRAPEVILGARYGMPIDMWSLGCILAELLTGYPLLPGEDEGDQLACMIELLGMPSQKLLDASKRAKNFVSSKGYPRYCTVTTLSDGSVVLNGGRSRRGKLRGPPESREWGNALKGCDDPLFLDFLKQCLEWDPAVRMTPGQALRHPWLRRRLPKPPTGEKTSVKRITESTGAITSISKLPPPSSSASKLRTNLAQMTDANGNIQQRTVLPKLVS
Sequence of DRAK1(h) (human) (Q9UEE5 whole entry): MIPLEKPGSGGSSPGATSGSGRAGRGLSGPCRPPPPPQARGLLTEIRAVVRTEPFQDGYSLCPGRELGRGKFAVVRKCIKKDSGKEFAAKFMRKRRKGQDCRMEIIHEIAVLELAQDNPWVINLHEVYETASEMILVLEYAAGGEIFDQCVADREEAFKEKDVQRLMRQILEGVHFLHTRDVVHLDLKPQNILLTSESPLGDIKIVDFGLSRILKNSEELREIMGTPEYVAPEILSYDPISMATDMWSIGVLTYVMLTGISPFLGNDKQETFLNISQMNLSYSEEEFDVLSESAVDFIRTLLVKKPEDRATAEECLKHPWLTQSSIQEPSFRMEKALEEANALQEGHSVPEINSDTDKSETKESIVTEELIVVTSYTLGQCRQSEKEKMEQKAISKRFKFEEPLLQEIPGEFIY

MMI-0500 (peptide)
% activity, 100 µM (ACK1(h) (human)): 64%
% activity, 100 µM (CDK5/p25(h) (human)): 66%
% activity, 100 µM (DAPK2(h) (human)): 3%
% activity, 100 µM (DRAK1(h) (human)): 8%
% activity, 100 µM (DYRK2(h) (human)): 127%
% activity, 100 µM (EphA1(h) (human)): 40%
% activity, 100 µM (EphB1(h) (human)): 37%
% activity, 100 µM (FAK(h) (human)): 94%
% activity, 100 µM (FGFR4(h) (human)): 3%
% activity, 100 µM (IKKβ(h) (human)): 71%
% activity, 100 µM (IR(h), activated (human)): 90%
% activity, 100 µM (KDR(h) (human)): 15%
% activity, 100 µM (MINK(h) (human)): 5%
% activity, 100 µM (PAK4(h) (human)): 86%
% activity, 100 µM (PKCβII(h) (human)): 3%
% activity, 100 µM (Ron(h) (human)): 46%
% activity, 100 µM (Rsk3(h) (human)): 23%
% activity, 100 µM (Src(T341M)(h) (human)): 59%
% activity, 100 µM (Tie2(Y897S)(h) (human)): 80%
% activity, 100 µM (cKit(D816H)(h) (human)): 194%
% activity, 100 µM (cKit(D816V)(h) (human)): 30%
% activity, 100 µM (eEF-2K(h) (human)): 43%
